The test deals with T1, human CD3 epsilon on human CD3 epsilon-expressing Ba/F3 cells (human, UniProt P07766 23-207).
T1 construct: The Ba/F3 transfectant is not itself tied to that entry; also called CD3/BaF; CD3 epsilon chain
The experiment in a line: flow cytometry on human CD3 epsilon-expressing Ba/F3 cells, FITC-labeled secondary antibody, calibration curve. (In general: In flow cytometry, cells or beads pass a laser one at a time.)

These results are taken from patent US20220041756A1 (Chugai, published 2022).

T1 sequence (P07766 23-207 limits assumed): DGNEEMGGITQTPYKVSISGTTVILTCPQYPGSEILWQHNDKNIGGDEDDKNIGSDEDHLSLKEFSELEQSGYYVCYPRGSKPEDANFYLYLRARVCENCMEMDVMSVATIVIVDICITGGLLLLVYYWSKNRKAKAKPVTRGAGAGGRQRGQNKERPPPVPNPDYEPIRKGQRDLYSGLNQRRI
Description: After washing these cells, an FITC-labeled secondary antibody was added for further reaction. After washing the cells, the fluorescent intensity of the label on the cells was measured using Epics XL flow cytometer (Beckman coulter) to prepare a calibration curve for each antibody.
Plasma was prepared from the blood and diluted appropriately. […] The plasma concentration of each antibody was calculated using determined values and the calibration curves described above.

B1: GPC3 ERY9-1 (bispecific antibody, human IgG1, kappa, L234A L235A, N297A)
heavy: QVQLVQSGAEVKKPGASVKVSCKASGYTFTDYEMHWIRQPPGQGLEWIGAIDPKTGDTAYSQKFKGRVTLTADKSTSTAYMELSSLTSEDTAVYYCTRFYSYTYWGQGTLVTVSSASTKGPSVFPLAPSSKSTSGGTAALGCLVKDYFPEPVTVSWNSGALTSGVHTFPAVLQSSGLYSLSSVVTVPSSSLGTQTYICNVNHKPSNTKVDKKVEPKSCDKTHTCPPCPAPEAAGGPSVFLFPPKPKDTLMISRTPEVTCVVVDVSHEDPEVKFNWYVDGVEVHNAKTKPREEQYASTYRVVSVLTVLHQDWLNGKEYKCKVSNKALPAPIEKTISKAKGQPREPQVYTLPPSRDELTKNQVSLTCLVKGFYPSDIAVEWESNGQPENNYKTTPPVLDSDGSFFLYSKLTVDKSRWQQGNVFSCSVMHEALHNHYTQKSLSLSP
light 1: DIVMTQSPLSLPVTPGEPASISCRSSQSLVHSNRNTYLHWYQQKPGQAPRLLIYKVSNRFSGVPDRFSGSGSGTDFTLKISRVEAEDVGVYYCSQNTHVPPTFGQGTKLEIKRTVAAPSVFIFPPSDEQLKSGTASVVCLLNNFYPREAKVQWKVDNALQSGNSQESVTEQDSKDSTYSLSSTLTLSKADYEKHKVYACEVTHQGLSSPVTKSFNRGECHHHHHHHH
light 2: DIVMTQSPLSLPVTPGEPASISCRSSQSLVHSNRNTYLHWYQQKPGQAPRLLIYKVSNRFSGVPDRFSGSGSGTDFTLKISRVEAEDVGVYYCSQNTHVPPTFGQGTKLEIKRTVAAPSVFIFPPSDEQLKSGTASVVCLLNNFYPREAKVQWKVDNALQSGNSQESVTEQDSKDSTYSLSSTLTLSKADYEKHKVYACEVTHQGLSSPVTKSFNRGECGGGGSGGGGSQAVVTQESALTTSPGETVTLTCRSSTGAVTTSNYANWVQEKPDHLFTGLIGGTNKRAPGVPARFSGSLIGDKAALTITGAQTEDEAIYFCALWYSNLWVFGGGTKLTVLGGGGSGGGGSGGGGSEVKLLESGGGLVQPKGSLKLSCAASGFTFNTYAMNWVRQAPGKGLEWVARIRSKYNNYATYYADSVKDRFTISRDDSQSILYLQMNNLKTEDTAMYYCVRHGNFGNSYVSWFAYWGQGTLVTVSADYKDDDDK
notes: Anti-GPC3 IgG backbone with silent Fc
With B1, the binding result is listed as “binds”.

B2: GPC3 ERY10-1 (bispecific antibody, human IgG1, kappa, L234A L235A, N297A)
heavy 1: QVQLVQSGAEVKKPGASVKVSCKASGYTFTDYEMHWIRQPPGQGLEWIGAIDPKTGDTAYSQKFKGRVTLTADKSTSTAYMELSSLTSEDTAVYYCTRFYSYTYWGQGTLVTVSSASTKGPSVFPLAPSSKSTSGGTAALGCLVKDYFPEPVTVSWNSGALTSGVHTFPAVLQSSGLYSLSSVVTVPSSSLGTQTYICNVNHKPSNTKVDKKVEPKSCDKTHTCPPCPAPEAAGGPSVFLFPPKPKDTLMISRTPEVTCVVVDVSHEDPEVKFNWYVDGVEVHNAKTKPREEQYASTYRVVSVLTVLHQDWLNGKEYKCKVSNKALPAPIEKTISKAKGQPREPQVYTLPPSRCELTKNQVSLSCAVKGFYPSDIAVEWESNGQPENNYKTTPPVLDSDGSFFLVSKLTVDKSRWQQGNVFSCSVMHEALHNHYTQKSLSLSPGGGGSGGGGSQAVVTQESALTTSPGETVTLTCRSSTGAVTTSNYANWVQEKPDHLFTGLIGGTNKRAPGVPARFSGSLIGDKAALTITGAQTEDEAIYFCALWYSNLWVFGGGTKLTVLGGGGSGGGGSGGGGSEVKLLESGGGLVQPKGSLKLSCAASGFTFNTYAMNWVRQAPGKGLEWVARIRSKYNNYATYYADSVKDRFTISRDDSQSILYLQMNNLKTEDTAMYYCVRHGNFGNSYVSWFAYWGQGTLVTVSADYKDDDDK
heavy 2: QVQLVQSGAEVKKPGASVKVSCKASGYTFTDYEMHWIRQPPGQGLEWIGAIDPKTGDTAYSQKFKGRVTLTADKSTSTAYMELSSLTSEDTAVYYCTRFYSYTYWGQGTLVTVSSASTKGPSVFPLAPSSKSTSGGTAALGCLVKDYFPEPVTVSWNSGALTSGVHTFPAVLQSSGLYSLSSVVTVPSSSLGTQTYICNVNHKPSNTKVDKKVEPKSCDKTHTCPPCPAPEAAGGPSVFLFPPKPKDTLMISRTPEVTCVVVDVSHEDPEVKFNWYVDGVEVHNAKTKPREEQYASTYRVVSVLTVLHQDWLNGKEYKCKVSNKALPAPIEKTISKAKGQPREPQVCTLPPSRDELTKNQVSLWCLVKGFYPSDIAVEWESNGQPENNYKTTPPVLDSDGSFFLYSKLTVDKSRWQQGNVFSCSVMHEALHNHYTQKSLSLSPHHHHHHHH
light: DIVMTQSPLSLPVTPGEPASISCRSSQSLVHSNRNTYLHWYQQKPGQAPRLLIYKVSNRFSGVPDRFSGSGSGTDFTLKISRVEAEDVGVYYCSQNTHVPPTFGQGTKLEIKRTVAAPSVFIFPPSDEQLKSGTASVVCLLNNFYPREAKVQWKVDNALQSGNSQESVTEQDSKDSTYSLSSTLTLSKADYEKHKVYACEVTHQGLSSPVTKSFNRGEC
notes: Anti-GPC3 IgG backbone with silent Fc and knobs-into-holes CH3; also called GPC ERY10-1
Consider B2, for which the binding result is “binds”.
